Assay results as given in patent publication US20240228986A1, “ENGINEERED CELLS, ENZYMES, AND METHODS FOR PRODUCING CANNABINOIDS” (priority 2021, published 2024).

How the values were obtained:
Type in all cases: cell-based, Yarrowia
[1] = test system: olivetolic acid; test: GPS1.1 fusions of MPT21 mutants, OA feed (Example 8, Table 10); details: in words; mutagenesis of MPT21, tested as GPS1.1-F11 fusions
Protocol: (§1) Overnight YPD (10 g/L yeast extract, 20 g/L peptone, 2% dextrose) cultures were inoculated from glycerol stocks of the appropriate strain and grown at 30° C. with 250 rpm shaking. Once cultures had reached an OD600 of 4-6, cultures were centrifuged at 500×g for 5 min, supernatants were discarded, and cell pellets were resuspended in equal volume of water. Resuspended cells were centrifuged at 500×g for 5 min, supernatants were discarded, and cells were resuspended in a volume (75 μL×OD×Vculture) of transformation cocktail (45% PEG-400, 0.1 M LiAc, 0.1 M DTT, and 25 ug/100 μL SS Salmon Sperm DNA). For each transformation, >1 μg of plasmid DNA was added to 55 μL cells/transformation cocktail and vortexed for 2 s. Transformations were incubated at 39° C. for 1 h with 250 rpm shaking. Transformations were resuspended in 750 μL YPD with 1 M sorbitol and recovered at 30° C. overnight with 250 rpm shaking. The next day, transformations were centrifuged at 500×g for 5 min, supernatants were discarded, and cell pellets were resuspended in 750 YPD. Resuspended transformations were plated on YPD with appropriate selection or YNBD (6.71 g/L yeast nitrogen base+nitrogen, 0.5% casamino acids, 2% dextrose) agar plates and grown at 30° C. for 2 days. Individual colonies were patched onto YPD plates with appropriate selection or YNBD plates and grown at 30° C. overnight. Patches were used to inoculate 0.5 mL YPD with appropriate selection or YNBD precultures in 96 w blocks and grown at 30° C. for 24-48 h with 1000 rpm shaking. For assays, 0.5 mL YPD with appropriate selection or YNBD cultures containing substrate were inoculated with 2 μL from precultures and grown at 30° C. for 2-4 days with 1000 rpm shaking with 2% glucose added every 24 h. Assay cultures were quenched by addition of 0.5 mL ethanol with 0.2% formic acid and 0.5 mg/mL pentyl-benzoic acid. Precipitates were pelleted by centrifuging at 4600×g for 10 min and then 200 μL was transferred to fresh plates, sealed, and analyzed via HPLC.
(§2) All samples were quenched with equal volume of EtOH containing 0.2 mg/mL internal standard (3,5-Diisopropyl-2-hydroxybenzoic acid CAS #2215-21-6) centrifuged, and clarified solutions were analyzed by HPLC-MS
(§3) • Column: 2.1×50 mm COSMOCORE PBr (Nacalai USA, Inc.) • Mobile Phase: A; 0.1% formic acid in water, B; 0.1% formic acid in acetonitrile • Flow: 0.45 mL/min • Temp: % 50 Celsius • Gradient: 20%B at 0 min, 70%B at 2.3 min, 89% B at 4.2 min, 20% B at 4.3 min, 20%B at 6 min

[2] = test system: olivetolic acid; test: Linkers for GPS1.1-MPT4 fusions, in vivo assay (Example 6); details: 1 mM olivetolic acid, 72 h quench; for CBGA / FCBGA: 2% glycerol, strain sCL-SE-0128; for CBGA/FCBGA: product ratio
Protocol: As described in detail below, plasmids pCL-SE-0380 (MPT4), pCL-SE-0406, pCL-SE-0435, and pCL-SE-0437 were transformed into strain sCL-SE-0128. Four separate colonies per transformation were precultured for 24 h in YNB containing glycerol (2%), casamino acids (0.5%), and MES (100 mM pH 6.5). Pre-culture was used to inoculate assay medium comprised of YNB containing glycerol (2%), casamino acids (0.5%), MES (100 mM pH 6.5), and olivetolic acid (1 mM). Cultures were quenched after 72 h total growth by mixing with equal volume of EtOH. Enzymes produced CBGA and FCBGA. Averages and standard deviations were calculated from replicates.
However, sCL-SE-0128 expresses HMGR and GPS1.1 to increase intracellular GPP levels for prenylation of OA to CBGA. The plasmids that were transformed contain either a gene expressing a prenyl-transferase (pCL-SE-0380 (MPT4)) or a gene expressing a fusion between GPS1.1 and a prenyl-transferase with different linker sequences.
as §1, §2, §3

[3] = test system: olivetolic acid; test: GPS-APT fusions, OA feed in vivo assay (Example 11)
Protocol: As described below, plasmids pCL-SE-0406, pCL-SE-0664, pCL-SE-0663, pCL-SE-0662, pCL-SE-0380 (MPT4), pCL-SE-0337.MPT21, pCL-SE-0337.MPT26, and pCL-SE-0337.MPT31 were transformed into strain sCL-SE-0128. Multiple colonies per transformation were precultured for 48 h in YNB containing glucose (2%), casamino acids (0.5%), and MES (100 mM pH 6.5). Pre-culture was used to inoculate assay medium comprised of YNB containing glucose (2%), casamino acids (0.5%), MES (100 mM pH 6.5), and olivetolic acid (2 mM). Cultures were quenched with equal volume of ethanol after 48 h total growth and assayed for CBGA and FCBGA. Averages and standard deviations were calculated from replicates.
Soluble prenyl transferase APT73.77 was fused with GPS1.1 at the N- or C-terminus with different linkers creating the plasmids shown in Table 14. These fusion proteins were expressed and screened as described in Example 8 (olivetolic acid feed)
as §1, §2, §3

[4] = olivetolic acid feed as in Example 8, 48 h quench, strain sCL-SE-0128

Row | Molecule | activity towards CBGA formation [1] | CBGA [2] [µM] | FCBGA [2] [µM] | CBGA/FCBGA [2] | other results
1 | MPT21.9 (protein, MPT21.9 (recombinant membrane-bound prenyltransferase)) MSDNSIATKILNFGHTCWKLQRPYVVKGMISIACGLFGKELLHNTNLISWGLMWKAFFALVPILSFNFFASIMNQIYDVDIDRINKPDLPLVSGEMSIETAWILSIIVALTGLIVTIKLKSAPLFVFIYIFGIFAGFAYSVPPIRWKQNPSTNFLITISSHVGLAFTSYYASRAALGLPFELRPSFTFLLAFMTVMGMTIAFAKDISDIEGDAKYGVSTVATKLGARNMTFVVSGVLLLNYVAAILAGIIWPQAFNSNVMLLSHAILAFCLIFQTRELALANYASAPSRQFFEFIWLLYYAEYFVYVFI | improved activity towards CBGA formation |  |  |  | 
2 | MPT21.18 (protein, MPT21.18 (recombinant membrane-bound prenyltransferase)) MSDNSIATKILNFGHTCWKLQRPYVVKGMISIACGLFGKELLHNTNLISWGLMWKAFFALVPILSFNFFAAIMNQIYDVDIDRINKPDLPLVSGEMSIETAWILSIIVALTGLIVTIKLKSAPLFVFIYIFGIFAGFAYSVPPIRWKQNPSTNFLITISSHVGLAFTSYYASRAALGLPFELRPSFTFLLAFMTVMGMTIAFAKDISDIEGDAKYGVSTVATKLGARNMTFVVSGVLLLNYVAAILAGIIWPQAFNSNVMLLSHAILAFCLIFQARELALANYASAPSRQFFEFIWLLYYAEYFVYVFI | improved activity towards CBGA formation |  |  |  | 
3 | MPT21.2 (protein, MPT21.2 (recombinant membrane-bound prenyltransferase)) MSDNSIATKILNFGHTCWKLQRPMVVKGMISIACGLFGKELLHNTNLISWGLMWKAFFALVPILSFNFFAAIMNQIYDVDIDRINKPDLPLVSGEMSIETAWILSIIVALTGLIVTIKLKSAPLFVFIYIFGIFAGFAYSVPPIRWKQNPSTNFLITISSHVGLAFTSYYASRAALGLPFELRPSFTFLLAFMTVMGMTIAFAKDISDIEGDAKYGVSTVATKLGARNMTFVVSGVLLLNYVAAILAGIIWPQAFNSNVMLLSHAILAFCLIFQTRELALANYASAPSRQFFEFIWLLYYAEYFVYVFI |  |  |  |  | ratio of CBGA/FCBGA [1]: improved ratio of CBGA/FCBGA
4 | GPS1.1-F5-MPT4: fusion protein, SEQ ID NO: 17 (protein, GPS1.1-F5-MPT4, geranyl diphosphate synthase, membrane-bound prenyltransferase fusion protein) MSKAKFESVFPRISEELVQLLRDEGLPQDAVQWFSDSLQYNCVGGKLNRGLSVVDTYQLLTGKKELDDEEYYRLALLGWLIELLQAFWLVSDDIMDESKTRRGQPCWYLKPKVGMIAIWDAFMLESGIYILLKKHFRQEKYYIDLVELFHDISFKTELGQLVDLLTAPEDEVDLNRFSLDKHSFIVRYKTAYYSFYLPVVLAMYVAGITNPKDLQQAMDVLIPLGEYFQVQDDYLDNFGDPEFIGKIGTDIQDNKCSWLVNKALQKATPEQRQILEDNYGVKDKSKELVIKKLYDDMKIEQDYLDYEEEVVGDIKKKIEQVDESRGFKKEVLNAFLAKIYKRQKGGGGSGGGGSGGGGSMSDNSIATKILNFGHTCWKLQRPYVVKGMISIACGLFGRELFNNRHLFSWGLMWKAFFALVPILSFNFFAAIMNQIYDVDIDRINKPDLPLVSGEMSIETAWILSIIVALTGLIVTIKLKSAPLFVFIYIFGIFAGFAYSVPPIRWKQYPFTNFLITISSHVGLAFTSYSATTSALGLPFVWRPAFSFIIAFMTVMGMTIAFAKDISDIEGDAKYGVSTVATKLGARNMTFVVSGVLLLNYLVSISIGIIWPQVFKSNIMILSHAILAFCLIFQTRELALANYASAPSRQFFEFIWLLYYAEYFVYVFI |  | 333 ± 129 | 49 ± 15 | 6.8 | 
5 | GPS1.1-F10-MPT4: fusion protein, SEQ ID NO: 19 (protein, GPS1.1-F10-MPT4, geranyl diphosphate synthase, membrane-bound prenyltransferase fusion protein) MSKAKFESVFPRISEELVQLLRDEGLPQDAVQWFSDSLQYNCVGGKLNRGLSVVDTYQLLTGKKELDDEEYYRLALLGWLIELLQAFWLVSDDIMDESKTRRGQPCWYLKPKVGMIAIWDAFMLESGIYILLKKHFRQEKYYIDLVELFHDISFKTELGQLVDLLTAPEDEVDLNRFSLDKHSFIVRYKTAYYSFYLPVVLAMYVAGITNPKDLQQAMDVLIPLGEYFQVQDDYLDNFGDPEFIGKIGTDIQDNKCSWLVNKALQKATPEQRQILEDNYGVKDKSKELVIKKLYDDMKIEQDYLDYEEEVVGDIKKKIEQVDESRGFKKEVLNAFLAKIYKRQKGGAEAAAKEAAAKAAEAAAKEAAAKAAEAAAKEAAAKAAEAAAKEAAAKAGGMSDNSIATKILNFGHTCWKLQRPYVVKGMISIACGLFGRELFNNRHLFSWGLMWKAFFALVPILSFNFFAAIMNQIYDVDIDRINKPDLPLVSGEMSIETAWILSIIVALTGLIVTIKLKSAPLFVFIYIFGIFAGFAYSVPPIRWKQYPFTNFLITISSHVGLAFTSYSATTSALGLPFVWRPAFSFIIAFMTVMGMTIAFAKDISDIEGDAKYGVSTVATKLGARNMTFVVSGVLLLNYLVSISIGIIWPQVFKSNIMILSHAILAFCLIFQTRELALANYASAPSRQFFEFIWLLYYAEYFVYVFI |  | 350 ± 17 | 54 ± 1 | 6.5 | 
6 | APT73.77-F18-GPS1.1: fusion protein, SEQ ID NO: 66 (protein, APT73.77-F18-GPS1.1, mutant soluble aromatic prenyltransferase, geranyl diphosphate synthase fusion protein) MDEVYAAVEQTSRLLDVPCSPDRFEPVWKAFGDQLPDSHLVFSMAAGEAHRGELDFDFSLRPEGADPYTTALEHGFIEPTDHPVGSVLAEVGKRFAIASYGVEYGVVGGFKKSYAFFPLDDFPPLAQFAEVPSVPPCLAGHVETLTRLGFDDKVSIIGVNYRKNTLNVYLAASAVDTGDKLALLRAFGYPEPDARVRQFIERSFRLYPTFNWDSSAAERICFAVHTQQPGELPAPHDEPTEAFARQVPHVYEGGREFVSGVALAPSGASYYKLAALYQKARRCLDGGGGSLEDPAVWEAGKVVAKGVGTADITATTSNGLIASSEEADNAATSMSKAKFESVFPRISEELVQLLRDEGLPQDAVQWFSDSLQYNCVGGKLNRGLSVVDTYQLLTGKKELDDEEYYRLALLGWLIELLQAFWLVSDDIMDESKTRRGQPCWYLKPKVGMIAIWDAFMLESGIYILLKKHFRQEKYYIDLVELFHDISFKTELGQLVDLLTAPEDEVDLNRFSLDKHSFIVRYKTAYYSFYLPVVLAMYVAGITNPKDLQQAMDVLIPLGEYFQVQDDYLDNFGDPEFIGKIGTDIQDNKCSWLVNKALQKATPEQRQILEDNYGVKDKSKELVIKKLYDDMKIEQDYLDYEEEVVGDIKKKIEQVDESRGFKKEVLNAFLAKIYKRQK |  |  |  |  | CBGA [3, 4]: 382 ± 26 µM; FCBGA [3, 4]: 149 ± 4 µM; CBGA/FCBG ([3]; olivetolic acid feed, 48 h quench, product ratio): 2.6
